Results reported in patent publication US9120865B2, “T cell epitopes of the Cyn d 1 allergen from bermuda grass pollen” (Circassia Limited, priority 2001, dated 2015).

Key:
[1] = tested on: oligoclonal T cell blasts from Bermuda grass pollen-specific T cell lines; test: Oligoclonal T cell proliferation assay (3HTdR incorporation); format: cell-based, human; settings: for number of patients in whom the peptide elicited proliferation: 13 Cyn d 1-reactive patients, SI≧2.5 considered significant
From the text: Bermuda grass pollen-specific T cell lines were isolated with the use of our well-established methods for thegeneration of allergen-specific T cell populations (O'Hehir, R. E., Young, D. B., Kay, A. B., Lamb, J. R., Immunology, 62:635-640, 1987; O'Hehir, R. E., Askonas, B. A., Lamb, J. R., Vol 3, Heidelberg:Springer-Verlag, p 120-138, 1993). Briefly, PBMC were separated from heparinized venous blood by density gradient centrifugation over Ficoll Paque (Pharmacia, Sweden). PBMC were initially stimulated for 1 week in 24-well plates (Costar, USA; 2.5×10^6 PBMC/well) with a previously determined optimal concentration of Bermuda grass pollen extract (50 μg/ml) for 7 days in complete medium (RPMI-1640 medium, Gibco Life Technologies, supplemented with 2 mmol/L L-glutamine, 100 IU/ml penicillin/streptomycin, and 5% screened, heat inactivated human AB^+ serum, Sigma Chemical Company, USA) at 37° C., 5% CO2. A two week line was established by restimulating the T cell blasts with Bermuda grass pollen extract in the presence of irradiated (3000 rads) autologous PBMC every 7 days, with the addition of interleukin-2 (5% vol/vol; Lymphocult-TLF, Biotest Folex, Frankfurt, Germany) every 3-4 days. In all experiments, T cells were rested for 7 days after the last addition of antigen and antigen presenting cells (APC) before use in proliferation assays. We have previously shown that CD4+ T cells are preferentially expanded in these cultures.
Oligoclonal T cell blasts (5×10^4/well) from the Bermuda grass pollen-specific T cell lines were stimulated in triplicate with Bermuda grass pollen extract (25, 50, 100 μg/ml), purified Cyn d 1 (2.5, 5, 10 μg/ml) and the Cyn d 1 peptides (1, 10 μg/ml) in the presence of an equal number of irradiated autologous PBMC as APC for 72 hours in 96-well round bottom plates (ICN Biomedicals, USA). Cultures of T cells and APC in the absence of antigen or with added IL-2 were included as negative and positive controls respectively. After 72 hours, cultures were pulsed with 1 μCi/well of tritiated methyl thymidine (^3HTdR; Amersham, USA) and harvested 16 hours later onto glass fibre filters. Proliferation as correlated with ^3HTdR incorporation was measured by liquid scintillation spectroscopy. Results are expressed as change in mean counters per minute above background (Acpm) or as a stimulation index (SI, cpm of antigen stimulated T cells divided by cpm of unstimulated T cells) to allow easier comparison between subjects with different background incorporation. Stimulation index values ≧2.5 are considered significant. Production of IL-5 and IFN-γ by Bermuda grass pollen-specific oligoclonal T cells

IL-5 = test: Production of IL-5 by Bermuda grass pollen-specific oligoclonal T cells (sandwich ELISA of culture supernatants); format: cell-based, human; settings: pre-SIT; supernatants at 48 hours
Procedure: (§1) Production of IL-5 and IFN-γ by cultured oligoclonal T cells was assessed by harvesting supernatants from proliferation assays at 48 hours after stimulation, with replacement by an equal volume of complete medium, and measurement of cytokine levels by sandwich ELISA. White 96-well maxisorp ELISA plates (Nalgene NUNC, Denmark) were coated with rat anti-mouse/human IL-5 (PharMingen, USA) or mouse anti-human IFN-γ (endogen, USA) at 2 μg/ml and incubated overnight at 4° C. The plates were washed with 0.5% Tween 20/PBS and blocked with 1% BSA/PBS for 1 hour at room temperature. The plates were washed again and the culture supernatants from pooled triplicate assays added in duplicate to the wells. A standard curve was established using known concentrations of human recombinant IL-5 (PharMingen, USA) and IFN-γ (Endogen, USA). The plates were incubated with either 1 μg/ml biotinylated rat anti-human IL-5 (PharMingen, USA) or 0.5 μg/ml biotinylated mouse anti-human IFN-γ (Endogen, USA) for 1 hour at room temperature. After washing the plates, streptavidin-biotinylated horseradish peroxidase (Amersham, USA), at a dilution of 1:2000, was added to each well and incubated for 45 minutes at room temperature. […] The plates were read on a LumiCount microplate glow luminometer (Packard Instrument Company, USA). […]

IFN-γ = test: Production of IFN-γ by Bermuda grass pollen-specific oligoclonal T cells (sandwich ELISA of culture supernatants); format: cell-based, human; settings: pre-SIT; supernatants at 48 hours
Procedure: as §1

[2] = tested on: oligoclonal house dust mite-reactive CD4+ T cells; test: Mitogenicity check with irradiated PBMC; format: cell-based, human; settings: data not shown
Procedure: (§2) Antigens • (i) Bermuda grass pollen. • Bermuda grass pollen was purchased from Greer Laboratories Inc. (Lenoir, N.C., USA) as dry, non-defatted pollen. One gram of pollen was extracted in 5 ml of 1 mM NH4HCO3 overnight at 4° C. on a rotating wheel. After centrifugation, the supernatant was dialyzed against PBS overnight. The extract was filtered through a 0.2 μm filter. The protein content of the extract was determined using the Bio-Rad Microassay (Bio-Rad, USA). • (ii) Cyn d 1. • Cyn d 1 was generated by the Bermuda grass pollen extract first undergoing an 80% ammonium sulphate precipitation. […] The protein content was determined using the Bio-Rad Microas say. • (iii) Peptides. • Synthetic peptides (20-mers overlapping by 11 or, for the two N-terminal peptides, 15 residues) spanning the entire length of the Cyn d 1 molecule were purchased from Mimotopes (Clayton, Australia; FIG. 2) (CD1 isoform, Smith et al., 1996, supra). • (iv) Mitogenicity and Toxicity. • Mitogenicity of Bermuda grass pollen, Cyn d 1 and Cyn d 1 peptides was excluded by culturing with oligoclonal house dust mite-reactive CD4^+ T cells in the presence of irradiated peripheral blood mononuclear cells (PBMC), and toxicity was excluded by co-culture of antigens with the HDM-reactive T cells in the presence of IL-2 (data not shown).

HDM-reactive T cells = test: Toxicity check by co-culture of antigens in the presence of IL-2; format: cell-based, human; settings: data not shown
Procedure: as §2

IgE = settings: sera from Bermuda grass pollen-allergic patients; cited from earlier work

PKDSDEFIPMKSSWGAIWRI (human) [Cyn d 1(181-200), synthetic 20-mer peptide of Cyn d 1, residues 181-200]
number of patients in whom the peptide elicited proliferation ([1]; pre-immunotherapy): 6 patients

EGGAHLVQDDVIPANWKPDT (human) [Cyn d 1(217-236), synthetic 20-mer peptide of Cyn d 1, residues 217-236]
number of patients in whom the peptide elicited proliferation ([1]; pre-immunotherapy): 8 patients

SGKAFGAMAKKGQEDKLRKA (human) [Cyn d 1(109-128), synthetic 20-mer peptide of Cyn d 1, residues 109-128]
number of patients in whom the peptide elicited proliferation ([1]; pre-immunotherapy): 8 patients

MKSSWGAIWRIDPKKPLKGP (human) [Cyn d 1(190-209), synthetic 20-mer peptide of Cyn d 1, residues 190-209]
number of patients in whom the peptide elicited proliferation ([1]; pre-immunotherapy): 6 patients

LVQDDVIPANWKPDTVYTSK (human) [Cyn d 1(222-241), synthetic 20-mer peptide of Cyn d 1, residues 222-241]
number of patients in whom the peptide elicited proliferation ([1]; pre-immunotherapy): 6 patients

B1: Cyn d 1: major allergen protein of Bermuda grass pollen, purified from the pollen extract by ammonium sulphate precipitation and G-75 Sephadex (protein)
chain: AIGDKPGPNITATYGNKWLEAKATFYGSNPRGAAPDDHGGACGYKDVDKPPFDGMTACGNEPIFKDGLGCGACYEIKCKEPVECSGEPVLVKITDKNYEHIAAYHFDLSGKAFGAMAKKGQEDKLRKAGELTLQFRRVKCKYPSGTKITFHIEKGSNDHYLALLVKYAAGDGNIVAVDIKPKDSDEFIPMKSSWGAIWRIDPKKPLKGPFSIRLTSEGGAHLVQDDVIPANWKPDTVYTSKLQFGA
modifications: human
notes: major allergen protein of Bermuda grass pollen, purified from the pollen extract by ammonium sulphate precipitation and G-75 Sephadex
change in proliferative responses / recognition ([1]; following SIT): marked decrease | patients with decreased proliferation ([1]; following one year of SIT): 11/13 | patients whose Bermuda grass pollen-specific T cell lines showed proliferative T cell responses ([1]; pre-immunotherapy, 2-week T cell lines from 14 patients): 13/14 | IL-5 secreted in response to stimulation (IL-5): High levels | IFN-γ secreted in response to stimulation (IFN-γ): High levels | Mitogenicity [2]: excluded | toxicity (HDM-reactive T cells): excluded | predominant humoral recognition (IgE): > 76%
